Results on 69 sequences are retold here after US20090062512A1, “Comparative ligand mapping from MHC class I positive cells” (priority 2000, published 2009).

In this assay the target is A*0201 class I MHC molecules in cells infected with the PR8 strain of influenza A virus (Homo sapiens, UniProt P04439, D140Y/D185E/D98H/E176V/E277Q/G131W/G231S/I119V/I121R/I166T/I218V/L300P/L318F/N151K/N90K/P208A/P217A/Q86G/Q94H/R138H/R169H/T345S). The class given is cell-based.

Values joined by “and” are separate entries in the source; they are usually repeats but may differ in a detail not shown here. Equal entries are not always repeated.

For AIIGGTFTV, the “Fold Increase” value is 4.17.
The value for AIVDKVPSV was 1.88.
The value for ALASHLIEA was 1.67; that for ALDEKLLNI was 1.61; that for ALDKATVLL was 2.13.
Turning to ALLAGSEYLKL, the “Fold Increase” value amounted to 1.51.
The value for ALLDKLYAL was 3.1.
The value for ALLSAVTRL was “Unique”; that for ALMDEVVKA was 2.59.
The value for ALNDHFVKL was 23.02; that for ALNEKLVNL was 1.52; that for ALQELLSKGL was 2.8.
Consider ALSDGVHKI, for which the “Fold Increase” value is 1.88 and 2.36.
The value for ALVEIGPRFVL was 10.83; that for ALVSSLHLL was 1.51; that for ALWEAKEGGLL was 1.54.
The result for AMIELVERL reads 1.81; that for AVGKVIPEL, 12.46.
The value for AVSDGVIKV was 8.98; that for FAITAIKGV was 3.49.
As for FIQTQQLHAA, the “Fold Increase” value is listed as “Unique”.
As for FLAEEGFYKF, the “Fold Increase” value amounted to 2.98.
As to FLASESLIKQIPR, the “Fold Increase” value is given as “Unique”.
As to FLFNTENKL, the “Fold Increase” value is recorded as 1.85.
The value for FLGRINEI was 1.99.
The value for FLLEKGYEV was 1.81.
The result for FLPSYIIDV reads 2.57.
FMFDEKLVTV: the “Fold Increase” value is 1.99.
The value for GIDSSSPEV was “Unique”; that for GIVEGLMTTV was 3.1; that for GIWGFIKGV was 6.1.
The value for GLAEDSPKM was 2; that for GLAKLIADV was 2.91; that for GLATDVQTV was 3.5.
The result for GLDIDGIYRV reads 1.95.
As for GLDKQIQEL, the “Fold Increase” value is given as 4.09.
For the sequence GLGPTFKL, the “Fold Increase” value is given as “unique”.
For GLIDGRLTI, the “Fold Increase” value is 1.67.
The result for GLIENDALL reads 1.71; that for GLLDPSVFHV, 2.17; that for GLMTTVHAIT, 2.5.
The result for GLMTTVHAITA reads 3.2.
The result for GLMTTVHAITAT reads “Unique”; that for GLMTTVHAITATQ, “Unique”.
With GLQDFDLLRV, the “Fold Increase” value came out at 2.29.
Regarding GLWDKFSEL, the “Fold Increase” value came out at 2.59.
GMASVISRL: the “Fold Increase” value is reported as “Unique”.
As for GMYIFLHTV, the “Fold Increase” value was 2.32.
The result for GMYVFLHAV reads 2.73.
The value for GVAESIHLWEV was 2.89.
For GVIAEILRGV, the “Fold Increase” value amounted to 1.56.
As to GVLDNIQAV, the “Fold Increase” value is “Unique”.
The value for GVYGDVHRV was 2.9.
The value for IIMLEALERV was 13.68; that for ILCPMIFNL was 2.51.
The value for ILDKKVEKV was “Unique”.
Consider ILGYTEHQV, for which the “Fold Increase” value is listed as 23.91.
Turning to ILMEHIHKL, the “Fold Increase” value turned out to be 5.46.
The result for ILSGVVTKM reads 1.74; that for ILYDIPDIRL, 5.99; that for IMLEALERV, 1.64.
The value for KAPPAPLAA was “Unique”.
Turning to KIADFGWSV, the “Fold Increase” value turned out to be 2.26.
The result for KIAPNTPQL reads 2.63.
With KIFEMGPVFTL, the “Fold Increase” value was 6.45.
The result for KIIDEDGLLNL reads 1.56; that for KLDEGNSL, 4.32.
The value for KLDPTKTTL was 2.93; that for KLEEIIHQI was 2.08.
